The record followed here is patent publication US20230002480A1.

Some results are limits rather than exact numbers.

Test in all cases: cell-based or functional assay
Assay [1] has as its target HIV-1 Env of pseudovirus 211-9 (clade CRF02_AG) (HIV-1).
Assay [2] concerns the target HIV-1 Env of pseudovirus 620345.c01 (clade CRF01_AE) (HIV-1).
Assay [3] addresses HIV-1 Env of pseudovirus C1080.c03 (clade CRF01_AE) (HIV-1).
In assay [4] the target is HIV-1 Env of pseudovirus C2101.c01 (clade CRF01_AE) (HIV-1).
Assay [5] addresses HIV-1 Env of pseudovirus T255-34 (clade CRF02_AG) (HIV-1).
Assay [6] has as its target HIV-1 Env of pseudovirus X1193_c1 (clade G) (HIV-1).
Assay [7] addresses HIV-1 Env pseudovirus 191084 B7-19 (HIV-1).
Assay [8] concerns the target HIV-1 Env pseudovirus 3415.v1.c1 (HIV-1).
Assay [9] deals with HIV-1 Env pseudovirus 3817.v2.c59 (HIV-1).
Assay [10] concerns the target HIV-1 Env pseudovirus 620345.c01 (HIV-1).
For assay [11], the target named is HIV-1 Env pseudovirus 6811.v7.c18 (HIV-1).
Assay [12] has as its target HIV-1 Env pseudovirus C4118.c09 (HIV-1).
For assay [13], the target named is HIV-1 Env pseudovirus R3265.c06 (HIV-1).
In assay [14] the target is HIV-1 Env pseudovirus T251-18 (HIV-1).
Assay [15] addresses HIV-1 Env pseudovirus T257-31 (HIV-1).
The target of assay [16] is HIV-1 Env pseudovirus T278-50 (HIV-1).
The target in assay [17] is HIV-1 Env pseudovirus X1193_c1 (HIV-1).
Assay [18] addresses HIV-1 Env pseudovirus X1254_c3 (HIV-1).

10-1074 (antibody): the IC50, titer in TZM.bl cells in [1] was 0.112 µg/mL; in assay [2], > 50 µg/mL; in [3] it was > 50000 ng/mL; in assay [4] it was > 50 µg/mL; in assay [5], > 50 µg/mL; in [6] it was 0.083 µg/mL. The IC80, titer in TZM.bl cells in assay [1] was 0.425 µg/mL; in assay [2], > 50 µg/mL; in assay [3], > 50 µg/mL; in assay [4], > 50 µg/mL; in assay [5], > 50 µg/mL; in [6] it was 0.475 µg/mL.

Consider 10E8 (antibody), for which the IC50, titer in TZM.bl cells in assay [1] came out at 1.09 µg/mL; in assay [2], 0.455 µg/mL; in [3], 61 ng/mL; in [4], 1.92 µg/mL; in assay [5] it was 0.778 µg/mL; in assay [6], 0.497 µg/mL. Besides, the IC80, titer in TZM.bl cells in assay [1] came to 6.51 µg/mL; in assay [2], 6 µg/mL; in [3], 0.731 µg/mL; in assay [4], 8.26 µg/mL; in assay [5], 4.21 µg/mL; in assay [6], 4.2 µg/mL.

As a reminder, the IC50 is the point on the concentration scale where inhibition reaches its midpoint. For orientation: IC80 means the concentration at which the effect reaches the 80% level. A higher IC80 goes with weaker potency. As to N49P19 (antibody), the IC50 in [7] is 0.357 µg/mL; in assay [8], 0.462 µg/mL; in assay [9], > 50 µg/mL; in assay [10] it was > 50 µg/mL; in assay [11], 1.3 µg/mL; in [12] it was 0.386 µg/mL. Further, the IC50 is 0.634 µg/mL in assay [13]; 0.938 µg/mL in assay [14]; 0.661 µg/mL in assay [15]; > 50 µg/mL in assay [16]; 0.54 µg/mL in [17]; > 50 µg/mL in [18]. The IC80 was 1.34 µg/mL in assay [7]; 2.04 µg/mL in [8]; > 50 µg/mL in [9]; > 50 µg/mL in assay [10]; 4.71 µg/mL in assay [11]; 1.36 µg/mL in assay [12]. Also, the IC80 in assay [13] is 2.73 µg/mL; in [14], 4.2 µg/mL; in assay [15], 3 µg/mL; in [16], > 50 µg/mL; in assay [17] it was 3.15 µg/mL; in assay [18] it was > 50 µg/mL. Also, the MPI in assay [7] is 100; in assay [8] it was 100; in assay [9], 26; in assay [10], 0; in assay [11], 97; in assay [12], 100. Moreover, the MPI in assay [13] turned out to be 100; in assay [14], 100; in [15], 100; in assay [16], 35; in assay [17], 99; in [18], 48.

As for PG9 (antibody), the IC50, titer in TZM.bl cells was 0.049 µg/mL in assay [1]; 1.33 µg/mL in assay [2]; 4 ng/mL in [3]; 0.034 µg/mL in assay [4]; 0.023 µg/mL in assay [5]; 0.105 µg/mL in assay [6]. Besides, the IC80, titer in TZM.bl cells is 0.243 µg/mL in [1]; > 50 µg/mL in assay [2]; 0.013 µg/mL in assay [3]; 0.099 µg/mL in assay [4]; 0.134 µg/mL in assay [5]; 0.304 µg/mL in [6].

For PG16 (antibody), the IC50, titer in TZM.bl cells in assay [1] is 0.029 µg/mL; in assay [2], > 50 µg/mL; in assay [3], 1 ng/mL; in assay [4] it was 0.012 µg/mL; in assay [5], 0.024 µg/mL; in assay [6], 0.018 µg/mL. Besides, the IC80, titer in TZM.bl cells in assay [1] was 0.144 µg/mL; in [2] it was > 50 µg/mL; in assay [3], 0.003 µg/mL; in assay [4], 0.238 µg/mL; in [5], 0.125 µg/mL; in assay [6], 0.11 µg/mL.
